Measured values published in patent US20250262210A1 (TRUSTEES OF COLUMBIA UNIVERSITY IN THE CITY OF NEW YORK, published 2025).

Molecular target: T1, LAMB3 (human, UniProt Q13751 18-1172)
T1 sequence (looked up): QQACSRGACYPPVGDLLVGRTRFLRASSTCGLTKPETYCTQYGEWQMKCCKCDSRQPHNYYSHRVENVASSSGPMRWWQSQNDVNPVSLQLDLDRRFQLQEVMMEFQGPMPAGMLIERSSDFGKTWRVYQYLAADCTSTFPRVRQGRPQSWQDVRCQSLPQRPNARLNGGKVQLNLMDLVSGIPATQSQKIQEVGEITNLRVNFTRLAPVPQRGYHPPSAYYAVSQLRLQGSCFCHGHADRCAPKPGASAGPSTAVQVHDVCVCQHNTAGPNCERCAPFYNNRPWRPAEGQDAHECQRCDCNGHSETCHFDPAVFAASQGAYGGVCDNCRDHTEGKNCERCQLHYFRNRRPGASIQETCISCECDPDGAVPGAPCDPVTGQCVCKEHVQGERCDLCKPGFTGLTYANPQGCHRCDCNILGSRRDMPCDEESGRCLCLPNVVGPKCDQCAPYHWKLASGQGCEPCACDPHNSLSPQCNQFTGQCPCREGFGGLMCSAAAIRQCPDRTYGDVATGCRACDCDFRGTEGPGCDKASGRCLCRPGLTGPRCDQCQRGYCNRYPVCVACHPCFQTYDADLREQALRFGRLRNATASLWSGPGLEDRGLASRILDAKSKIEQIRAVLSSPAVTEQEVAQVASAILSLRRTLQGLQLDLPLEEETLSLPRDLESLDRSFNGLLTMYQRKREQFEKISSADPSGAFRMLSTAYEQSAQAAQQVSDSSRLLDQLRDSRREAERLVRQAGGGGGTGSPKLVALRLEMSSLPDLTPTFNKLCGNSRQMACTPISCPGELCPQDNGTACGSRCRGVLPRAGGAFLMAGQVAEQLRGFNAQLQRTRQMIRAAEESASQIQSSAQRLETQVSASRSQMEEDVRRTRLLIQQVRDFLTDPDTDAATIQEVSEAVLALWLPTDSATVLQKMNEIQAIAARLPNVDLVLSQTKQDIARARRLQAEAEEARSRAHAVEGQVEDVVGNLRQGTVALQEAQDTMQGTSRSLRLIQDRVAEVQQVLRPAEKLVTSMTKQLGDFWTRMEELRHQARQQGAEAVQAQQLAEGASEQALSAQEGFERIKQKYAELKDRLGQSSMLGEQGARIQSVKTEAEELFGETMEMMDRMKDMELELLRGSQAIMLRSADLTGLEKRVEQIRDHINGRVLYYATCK
Experiment: IP/MS, LZTR1 R810W-FLAG, U87
Outline: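 Read-out: spectral counts from LC-MS/MS (Orbitrap Fusion) after MaxQuant identification. Variable modifications were Met oxidation, protein N-terminal acetylation and N/Q deamidation.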

B1: LZTR1 R810W-FLAG (other, human, UniProt Q8N653 1-840, looked up)
chain: MAGPGSTGGQIGAAALAGGARSKVAPSVDFDHSCSDSVEYLTLNFGPFETVHRWRRLPPCDEFVGARRSKHTVVAYKDAIYVFGGDNGKTMLNDLLRFDVKDCSWCRAFTTGTPPAPRYHHSAVVYGSSMFVFGGYTGDIYSNSNLKNKNDLFEYKFATGQWTEWKIEGRLPVARSAHGATVYSDKLWIFAGYDGNARLNDMWTIGLQDRELTCWEEVAQSGEIPPSCCNFPVAVCRDKMFVFSGQSGAKITNNLFQFEFKDKTWTRIPTEHLLRGSPPPPQRRYGHTMVAFDRHLYVFGGAADNTLPNELHCYDVDFQTWEVVQPSSDSEVGGAEVPERACASEEVPTLTYEERVGFKKSRDVFGLDFGTTSAKQPTQPASELPSGRLFHAAAVISDAMYIFGGTVDNNIRSGEMYRFQFSCYPKCTLHEDYGRLWESRQFCDVEFVLGEKEECVQGHVAIVTARSRWLRRKITQARERLAQKLEQEAAPVPREAPGVAAGGARPPLLHVAIREAEARPFEVLMQFLYTDKIKYPRKGHVEDVLLIMDVYKLALSFQLCRLEQLCRQYIEASVDLQNVLVVCESAARLQLSQLKEHCLNFVVKESHFNQVIMMKEFERLSSPLIVEIVRRKQQPPPRTPLDQPVDIGTSLIQDMKAYLEGAGAEFCDITLLLDGHPRPAHKAILAARSSYFEAMFRSFMPEDGQVNISIGEMVPSRQAFESMLRYIYYGEVNMPPEDSLYLFAAPYYYGFYNNRLQAYCKQNLEMNVTVQNVLQILEAADKTQALDMKRHCLHIIVHQFTKVSKLPTLWSLSQQLLLDIIDSLASHISDKQCAELGADI
notes: Stably expressed in U87 cells by lentivirus; also called LZTR1-FLAG-R810W; LZTR1 RW; not shown: FLAG tag
Question: Does B1 bind?
Answer: Result: binds
